Test results: patent US20100077492A1 (UNIVERSITY OF MASSACHUSETTS, published 2010)

B1: ^32P-labelled XPG-HMK (human XPG with a C-terminal heart muscle kinase recognition sequence tag) (enzyme)
chain: MGVQGLWKLLECSGRQVSPEALEGKILAVDISIWLNQALKGVRDRHGNSIENPHLLTLFHRLCKLLFFRIRPIFVFDGDAPLLKKQTLVKRRQRKDLASSDSRKTTEKLLKTFLKRQAIKTAFRSKRDEALPSLTQVRRENDLYVLPPLQEEEKHSSEEEDEKEWQERMNQKQALQEEFFHNPQAIDIESEDFSSLPPEVKHEILTDMKEFTKRRRTLFEAMPEESDDFSQYQLKGLLKKNYLNQHIEHVQKEMNQQHSGHIRRQYEDEGGFLKEVESRRVVSEDTSHYILIKGIQAKTVAEVDSESLPSSSKMHGMSFDVKSSPCEKLKTEKEPDATPPSPRTLLAMQAALLGSSSEEELESENRRQARGRNAPAAVDEGSISPRTLSAIKRALDDDEDVKVCAGDDVQTGGPGAEEMRINSSTENSDEGLKVRDGKGIPFTATLASSSVNSAEEHVASTNEGREPTDSVPKEQMSLVHVGTEAFPISDESMIKDRKDRLPLESAVVRHSDAPGLPNGRELTPASPTCTNSVSKNETHAEVLEQQNELCPYESKFDSSLLSSDDETKCKPNSASEVIGPVSLQETSSIVSVPSEAVDNVENVVSFNAKEHENFLETIQEQQTTESAGQDLISIPKAVEPMEIDSEESESDGSFIEVQSVISDEELQAEFPETSKPPSEQGEEELVGTREGEAPAESESLLRDNSERDDVDGEPQEAEKDAEDSLHEWQDINLEELETLESNLLAQQNSLKAQKQQQERIAATVTGQMFLESQELLRLFGIPYIQAPMEAEAQCAILDLTDQTSGTITDDSDIWLFGARHVYRNFFNKNKFVEYYQYVDFHNQLGLDRNKLINLAYLLGSDYTEGIPTVGCVTAMEILNEFPGHGLEPLLKFSEWWHEAQKNPKIRPNPHDTKVKKKLRTLQLTPGFPNPAVAEAYLKPVVDDSKGSFLWGKPDLDKIREFCQRYFGWNRTKTDESLFPVLKQLDAQQTQLRIDSFFRLAQQEKEDAKRIKSQRLNRAVTCMLRKEKEAAASEIEAVSVAMEKEFELLDKAKGKTQKRGITNTLEESSSLKRKRLSDSKGKNTCGGFLGETCLSESSDGSSSEDAESSSLMNVQRRTAAKEPKTSASDSQNSVKEAPVKNGGATTSSSSDSDDDGGKEKMVLVTARSVFGKKRRKLRRARGRKRKTRRASV
modifications: ^32P-labeled at the heart muscle kinase (HMK) recognition tag RRASV
notes: The tagged form was used only in the far western and slot blot assays, as the labelled probe in solution; also called ^32P-labeled XPG with a heart muscle kinase (HMK) tag
B2: E. coli Endo III (enzyme, UniProt P0AB83 1-211, looked up)
chain: MNKAKRLEILTRLRENNPHPTTELNFSSPFELLIAVLLSAQATDVSVNKATAKLYPVANTPAAMLELGVEGVKTYIKTIGLYNSKAENIIKTCRILLEQHNGEVPEDRAALEALPGVGRKTANVVLNTAFGWPTIAVDTHIFRVCNRTQFAPGKNVEQVEEKLLKVVPAEFKVDCHHWLILHGRYTCIARKPRCGSCIIEDLCEYKEKVDI
notes: Negative control, immobilised on the membrane

Tests used:
[1] = molecular target: T1, human PC4 protein (full length wild type) (human, UniProt P53999 1-127); experiment: far western: ^32P-labelled XPG-HMK probe on PC4 transferred from SDS-PAGE
T1 construct: Full length wild type PC4 expressed in E. coli BL21(DE3) and purified by the methods of Ge et al; It was immobilised on the membrane, denatured after SDS-PAGE in the far western and native in the slot blot
Method: (§1) For “far western” analysis, human PC4 protein (1.5 μg), human Nth1 protein (2.1 μg) and E. coli EndoIII (3 μg) were separated on SDS-PAGE (pre-cast 4-20% gel, BioRad), transferred to a PVDF membrane, and stained with Ponceau S to visualize the proteins on the membrane. The membrane was then blocked with a blocking buffer (25 mM Hepes-KOH (pH 7.7), 25 mM NaCl, 5 mM MgCl₂, 1 mM DTT, 1% nonfat milk and 0.1% NP-40) for 2 hours at 4° C. and probed overnight at 4° C. on a rocker with blocking buffer containing 150 mM KCl and ³²P-labeled XPG with a heart muscle kinase (HMK) tag. The membrane was washed with washing buffer (25 mM Hepes-KOH (pH 7.7), 25 mM NaCl, 150 mM KCl, 5 mM MgCl2, 1 mM DTT, 1% nonfat milk and 0.5% NP-40), and interactions were visualized by both phosphorimager and autoradiography. For slot-blot analysis 1 μg each of PC4, hNth1 and EndoIII were applied to a nitrocellulose membrane, and the membrane was processed as above.
(§2) Since Sub1 evidently functions in a pathway involving Rad2, we tested the possibility of direct interaction between the human PC4 and XPG proteins by “far western” analysis. To test PC4-XPG interaction, ³²P-labeled XPG was used as a probe for PC4 transferred onto a membrane from an SDS-PAGE gel. […]

[2] = molecular target: B1; experiment: far western: ^32P-labelled XPG-HMK probe on proteins transferred from SDS-PAGE
Method: as §1, §2

binding result [1] | Binder | binding result [2]
binds | B1 | –
– | B2 | no binding (tested: 3 µg EndoIII on the membrane)
